Results taken from publication PMC4133262, “Discovery of a Eukaryotic Pyrroloquinoline Quinone-Dependent Oxidoreductase Belonging to a New Auxiliary Activity Family in the Database of Carbohydrate-Active Enzymes” (PLoS ONE, 2014).
One block for each molecule: values may come before it.

Tests used:
[1] = target: T1, PQQ domain of CcSDH (Coprinopsis cinerea, UniProt A0A0A8IDB7); assay: isothermal titration calorimetry, single-site model; assay type: binding
T1 construct: gene PDH; PQQ dehydrogenase domain only: N-terminal 221 residues (heme domain) and last 77 C-terminal residues (with CBM1) removed; begins at T222 (primer encodes TFVSC); secreted from Pichia pastoris
T1 sequence (A0A0A8IDB7 240-649): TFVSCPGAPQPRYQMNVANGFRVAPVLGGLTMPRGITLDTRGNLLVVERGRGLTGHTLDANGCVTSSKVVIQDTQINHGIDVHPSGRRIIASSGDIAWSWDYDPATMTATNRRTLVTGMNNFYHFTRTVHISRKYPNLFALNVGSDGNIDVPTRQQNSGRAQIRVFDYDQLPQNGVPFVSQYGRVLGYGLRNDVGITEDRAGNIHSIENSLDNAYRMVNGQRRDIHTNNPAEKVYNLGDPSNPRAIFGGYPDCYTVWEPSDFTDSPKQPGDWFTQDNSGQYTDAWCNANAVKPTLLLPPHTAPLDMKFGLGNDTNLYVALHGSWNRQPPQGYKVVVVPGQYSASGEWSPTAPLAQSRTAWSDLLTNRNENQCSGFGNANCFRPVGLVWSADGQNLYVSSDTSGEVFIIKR

[2] = substrate: O=CC(=O)[C@@H](O)[C@H](O)[C@H](O)CO; assay: purified protein; assay type: biochemical, Coprinopsis cinerea; conditions: 50 mM Tris-HCl pH 8.5, 1 µM PQQ, 1 mM CaCl2, 50 µM cytochrome c, 30 °C, background reduction by D-glucosone subtracted

Kd [1]: 1.11 nM
Molecule: O=C(O)c1cc(C(=O)O)c2c(n1)C(=O)C(=O)c1cc(C(=O)O)[nH]c1-2 [Pyrroloquinoline quinone]

B1: CcSDH (C. cinerea sugar dehydrogenase), full-length recombinant (Coprinopsis cinerea) (protein)
chain: QGSPTQWYDSITGVTFSRFYQQDTDASWGYIFPSASGGQAPDEFIGLFQGPASAGWIGNSLGGSMRNNPLLVGWVDGSTPRISARWATDYAPPSIYSGPRLTILGSSGTNGNIQRIVYRCQNCTRWTGGAGGIPTTGSAVFGWAFHSTTKPLTPSDPSSGLYRHSHAAQYGFDIGNARTTLYDYYLQQLTNAPPLSGGAPTQPPTQQPPTTTAPPPPPPSSTFVSCPGAPQPRYQMNVANGFRVAPVLGGLTMPRGITLDTRGNLLVVERGRGLTGHTLDANGCVTSSKVVIQDTQINHGIDVHPSGRRIIASSGDIAWSWDYDPATMTATNRRTLVTGMNNFYHFTRTVHISRKYPNLFALNVGSDGNIDVPTRQQNSGRAQIRVFDYDQLPQNGVPFVSQYGRVLGYGLRNDVGITEDRAGNIHSIENSLDNAYRMVNGQRRDIHTNNPAEKVYNLGDPSNPRAIFGGYPDCYTVWEPSDFTDSPKQPGDWFTQDNSGQYTDAWCNANAVKPTLLLPPHTAPLDMKFGLGNDTNLYVALHGSWNRQPPQGYKVVVVPGQYSASGEWSPTAPLAQSRTAWSDLLTNRNENQCSGFGNANCFRPVGLVWSADGQNLYVSSDTSGEVFIIKRMSGPIVQPPITQPPITTSPPTPTTPPVVQPPTTVAPPQASQTLWGQCGGQGWTGPTLCPANSVCRESNQWYSQCVPA
notes: mature protein without 18-residue signal peptide (726-aa ORF); AA8 cytochrome b + PQQ dehydrogenase + CBM1 domains; secreted from Pichia pastoris (pPICZalpha), glycosylated, 98 kDa on SDS-PAGE; genome locus Chromosome 6:1274274-1277156
Km [2]: 7.9 (±0.3) mM
kcat [2]: 74.1 ± 1.4 s⁻¹
kcat/Km [2]: 9370 M⁻¹ s⁻¹
